Columns and labels:
Experiment in all cases: cell-based or functional assay
[1] = target: Env of HIV isolate 16055-2.3 (clade C) (HIV)
[2] = target: Env of HIV isolate 26191-2.48 (clade C) (HIV)
[3] = target: Env of HIV isolate 3168.v4.c10 (clade C) (HIV)
[4] = target: Env of HIV isolate 3637.v5.c3 (clade C) (HIV)
[5] = target: Env of HIV isolate 426c (clade C) (HIV)
[6] = target: Env of HIV isolate 620345.c1 (clade AE) (HIV)
[7] = target: Env of HIV isolate 6540.v4.c1 (clade AC) (HIV)
[8] = target: Env of HIV isolate 6631.v3.c10 (clade C) (HIV)
[9] = target: Env of HIV isolate 928-28 (clade AG) (HIV)
[10] = target: Env of HIV isolate A03349M1.vrc4a (clade D) (HIV)
[11] = target: Env of HIV isolate BB201.B42 (clade A) (HIV)
[12] = target: Env of HIV isolate BJOX010000.06.2 (clade AE) (HIV)
[13] = target: Env of HIV isolate CNE14 (clade B) (HIV)
[14] = target: Env of HIV isolate CNE30 (clade C in Table 7) (HIV)
[15] = target: Env of HIV isolate JRFL.JB (clade B) (HIV)
[16] = target: Env of HIV isolate KNH1209.18 (clade A) (HIV)
[17] = target: Env of HIV isolate MI369.A5 (clade A) (HIV)
[18] = target: Env of HIV isolate Q769.d22 (clade A) (HIV)
[19] = target: Env of HIV isolate QH0515.01 (clade B) (HIV)
[20] = target: Env of HIV isolate R1166.C1 (clade AE) (HIV)
[21] = target: Env of HIV isolate RHPA.7 (clade B) (HIV)
[22] = target: Env of HIV isolate T250-4 (clade AG) (HIV)
[23] = target: Env of HIV isolate T253-11 (clade AG) (HIV)
[24] = target: Env of HIV isolate X2088.c9 (clade G) (HIV)
[25] = target: Env of HIV isolate X2131.C1.B5 (clade G) (HIV)
[26] = target: Env of HIV isolate ZM106.9 (clade C) (HIV)
[27] = target: Env of HIV isolate ZM176.66 (clade C) (HIV)
[28] = target: Env of HIV isolate ZM53.12 (clade C) (HIV)
[29] = target: Envelope protein of SVA.MLV (clade NA)
[30] = target: HIV Env of isolate 16845-2.22 (HIV)
[31] = target: HIV Env of isolate 3168.v4.c10 (HIV)
[32] = target: HIV Env of isolate 3718.v3.c11 (HIV)
[33] = target: HIV Env of isolate 398-F1.F6.20 (HIV)
[34] = target: HIV Env of isolate 426c (HIV)
[35] = target: HIV Env of isolate 57128.vrc15 (HIV)
[36] = target: HIV Env of isolate 6405.v4.c34 (HIV)
[37] = target: HIV Env of isolate BI369.9A (HIV)
[38] = target: HIV Env of isolate BS208.B1 (HIV)
[39] = target: HIV Env of isolate C4118.09 (HIV)
[40] = target: HIV Env of isolate CAP210.E8 (HIV)
[41] = target: HIV Env of isolate CNE10 (HIV)
[42] = target: HIV Env of isolate CNE21 (HIV)
[43] = target: HIV Env of isolate CNE40 (HIV)
[44] = target: HIV Env of isolate CNE55 (HIV)
[45] = target: HIV Env of isolate CNE59 (HIV)
[46] = target: HIV Env of isolate Ce1176.A3 (HIV)
[47] = target: HIV Env of isolate JRFL.JB (HIV)
[48] = target: HIV Env of isolate P1981.C5.3 (HIV)
[49] = target: HIV Env of isolate Q461.e2 (HIV)
[50] = target: HIV Env of isolate Q769.h5 (HIV)
[51] = target: HIV Env of isolate T280-5 (HIV)
[52] = target: HIV Env of isolate ZM109.4 (HIV)
[53] = target: HIV Env of isolate ZM197.7 (HIV)

Question: How did the IC50, pseudovirus neutralization [1] turn out when PGT121 (antibody) was run?
Answer: 0.312 µg/mL

Question: And the IC50, pseudovirus neutralization [2]?
Answer: 0.085 µg/mL

Question: What about the IC50, pseudovirus neutralization [3] of the same substance?
Answer: 0.446 µg/mL

Question: And the IC50, pseudovirus neutralization [4]?
Answer: > 50 µg/mL

Question: And the IC50, pseudovirus neutralization [5]?
Answer: > 50 µg/mL

Question: What about the IC50, pseudovirus neutralization [6] of the same substance?
Answer: > 50 µg/mL

Question: What about the IC50, pseudovirus neutralization [7] of the same substance?
Answer: > 50 µg/mL

Question: And the IC50, pseudovirus neutralization [8]?
Answer: > 50 µg/mL

Question: And the IC50, pseudovirus neutralization [9]?
Answer: 5.76 µg/mL

Question: What about the IC50, pseudovirus neutralization [10] of the same substance?
Answer: 0.0747 µg/mL

Question: And the IC50, pseudovirus neutralization [11]?
Answer: 9.33 ng/mL

Question: And the IC50, pseudovirus neutralization [12]?
Answer: > 50 µg/mL

Question: What about the IC50, pseudovirus neutralization [13] of the same substance?
Answer: 0.0103 µg/mL

Question: What about the IC50, pseudovirus neutralization [14] of the same substance?
Answer: 0.114 µg/mL

Question: And the IC50, pseudovirus neutralization [15]?
Answer: 0.0397 µg/mL

Question: What about the IC50, pseudovirus neutralization [16] of the same substance?
Answer: 0.0117 µg/mL

Question: And the IC50, pseudovirus neutralization [17]?
Answer: 0.0507 µg/mL

Question: And the IC50, pseudovirus neutralization [18]?
Answer: > 50 µg/mL

Question: And the IC50, pseudovirus neutralization [19]?
Answer: 2.83 µg/mL

Question: What about the IC50, pseudovirus neutralization [20] of the same substance?
Answer: > 50 µg/mL

Question: And the IC50, pseudovirus neutralization [21]?
Answer: 0.0357 µg/mL

Question: And the IC50, pseudovirus neutralization [22]?
Answer: 4.33 ng/mL

Question: And the IC50, pseudovirus neutralization [23]?
Answer: > 50 µg/mL

Question: What about the IC50, pseudovirus neutralization [24] of the same substance?
Answer: 6.33 ng/mL

Question: What about the IC50, pseudovirus neutralization [25] of the same substance?
Answer: 0.013 µg/mL

Question: What about the IC50, pseudovirus neutralization [26] of the same substance?
Answer: 0.0127 µg/mL

Question: What about the IC50, pseudovirus neutralization [27] of the same substance?
Answer: 4.1 µg/mL

Question: What about the IC50, pseudovirus neutralization [28] of the same substance?
Answer: 2.67 ng/mL

Question: And the IC50, pseudovirus neutralization [29]?
Answer: > 50 µg/mL

Question: What about the IC80, pseudovirus neutralization [30] of the same substance?
Answer: 18.6 µg/mL

Question: And the IC80, pseudovirus neutralization [31]?
Answer: 1.43 µg/mL

Question: And the IC80 [32]?
Answer: 4.76 µg/mL

Question: What about the IC80 [33] of the same substance?
Answer: 0.0527 µg/mL

Question: What about the IC80, pseudovirus neutralization [34] of the same substance?
Answer: > 50 µg/mL

Question: What about the IC80, pseudovirus neutralization [35] of the same substance?
Answer: > 50 µg/mL

Question: And the IC80, pseudovirus neutralization [36]?
Answer: 0.136 µg/mL

Question: And the IC80 [37]?
Answer: 0.085 µg/mL

Question: What about the IC80 [38] of the same substance?
Answer: > 50 µg/mL

Question: And the IC80 [39]?
Answer: > 50 µg/mL

Question: What about the IC80, pseudovirus neutralization [40] of the same substance?
Answer: > 50 µg/mL

Question: What about the IC80 [41] of the same substance?
Answer: 0.048 µg/mL

Question: What about the IC80, pseudovirus neutralization [42] of the same substance?
Answer: 0.0383 µg/mL

Question: What about the IC80, pseudovirus neutralization [43] of the same substance?
Answer: 1.21 µg/mL

Question: And the IC80 [44]?
Answer: > 50 µg/mL

Question: What about the IC80 [45] of the same substance?
Answer: > 50 µg/mL

Question: What about the IC80, pseudovirus neutralization [46] of the same substance?
Answer: 0.066 µg/mL

Question: What about the IC80 [47] of the same substance?
Answer: 0.107 µg/mL

Question: And the IC80, pseudovirus neutralization [48]?
Answer: 0.013 µg/mL

Question: And the IC80 [49]?
Answer: > 50 µg/mL

Question: What about the IC80 [50] of the same substance?
Answer: > 50 µg/mL

Question: And the IC80 [51]?
Answer: 0.038 µg/mL

Question: And the IC80, pseudovirus neutralization [52]?
Answer: > 50 µg/mL

Question: And the IC80, pseudovirus neutralization [53]?
Answer: > 50 µg/mL
